± gives the standard deviation.
Assay: protein stability index of a GFP-peptide fusion (GPS, HEK-293T) (PSI 1-6); higher = more stable
Conditions: c terminus: a fixed tail appended
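Also: 24-mer peptide tiles fused after GFP, lentivirally expressed, FACS-sorted into six equal bins by GFP/DsRed ratio, decoded by Illumina sequencing, PSI is the read-weighted mean bin number.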

Row | Sequence | protein stability index (treatment: DMSO) | protein stability index (treatment: MLN4924 1 uM, 8 h)
1 | FRSPSMPCSVIRPILKRLERPQDR [CDC25B] | 3.64 ± 0.19 | 3.56 ± 0.2
2 | GYGGGLGAGFGGGLGAGFGGGFAG [KRT16] | 2.65 ± 0.38 | 2.47 ± 0.28
3 | VWSCEGCKAFFKRSIQGHNDYICP [ESR2] | 2.32 ± 0.16 | 2.15 ± 0.11
4 | RTRRLGNMKNGANDVKHHRWFRSV [PRKX] | 3.17 ± 0.39 | 3.14 ± 0.38
5 | KSTSIQVIVKEGGLKLIQIQDNGT [MLH1] | 2.18 ± 0.53 | 2.54 ± 0.56
6 | SIMSTGIVQGSSGAQGSGGGSTSA [CARM1] | 4.85 ± 0.24 | 5.12 ± 1
7 | RPTPQDWLHRRAQILEILRRRPWA [ADAMTS4] | 2.63 ± 0.13 | 3.1 ± 0.48
8 | AAINSIYSNTDANILFYVVGLRNT [GLT8D2] | 2.97 ± 0.91 | 2.75 ± 0.73
9 | ILVYDIANRWSFDGIDRWIKEIDE [RAB40B] | 2.11 ± 0.57 | 1.93 ± 0.31
10 | SPPVPGPSAALTTMQLFSKQNPSR [FBXO28] | 4.22 ± 0.42 | 4.33 ± 0.23
11 | CAKYTYPVCSALLDPVLQAPGTGP [FANCE] | 2.65 ± 0.14 | 2.26 ± 0.17
12 | PTEGQGSLLTNWPSVPPTIKEEEN [MYBL2] | 5.46 ± 0.23 | 5.42 ± 0.18
13 | EVKKKGKMKKLGQAMEEDLIVGLQ [HDAC6] | 4.55 ± 0.72 | 4.75 ± 0.14
14 | QGPISTKELADFIRERATIEETYS [FCHO1] | 3.13 ± 0.21 | 3.26 ± 0.32
15 | TVSTMYYLWMCSTLALLLNFLACL [SCAMP3] | 3.13 ± 0.22 | 3.03 ± 0.63
16 | LKDIFMFITRQLKGLEDTKSPQFN [PDS5B] | 2.11 ± 0.058 | 2.54 ± 0.31
17 | LIYTVMLAFRSGSDNLLVILKRKW [SLC35F2] | 2.3 ± 0.91 | 1.84 ± 0.51
18 | ERVVREALEKLRSEMEEEKRQAVN [ZMYND11] | 4.59 ± 0.46 | 4.64 ± 0.063
19 | ENNYYWSASECMQDFNTMFTNCYI [BRD3] | 2.28 ± 0.67 | 2.49 ± 0.44
20 | VRELRIAFREFDRDRDGRITVAEL [CABP4] | 2.7 ± 0.49 | 2.98 ± 0.17
21 | KETDPLTFNFISSLKAICTEIANC [PLD5] | 2 ± 0.27 | 2.05 ± 0.1
22 | PYHVDSLLQLSDACRFQEDQEMAR [TCF25] | 4.36 ± 0.17 | 4.04 ± 0.21
23 | ALDSADLPPPSALKKGSKEKQADF [NFE2L1] | 5.33 ± 0.2 | 5.39 ± 0.21

Row | Sequence | protein stability index (treatment: DMSO) | protein stability index (treatment: MLN4924 1 uM, 8 h)
24 | VAYRSLGRFEQLGKTAASWCLHVN [FSD1] | 2.6 ± 0.6 | 2.2 ± 0.36
25 | TPQEPWPGPTAPSPTSRPPWAVDP [PDLIM7] | 4.19 ± 0.21 | 4.28 ± 0.093
26 | EEDGGADEHEHPLTSELDPEKEQE [MIA2] | 5.4 ± 0.57 | 5.5 ± 0.37
27 | EVFRFVQSCARAVVPSYIPLVKKH [CPOX] | 2.12 ± 0.21 | 2.37 ± 0.33
28 | KLEPIKSRAPQLHLEYRFYKQLGS [CSNK1G1] | 2.06 ± 0.76 | 2.27 ± 0.21
29 | RSCTPNAEVRHEIQDGTIHLYIYS [KMT2E] | 2.1 ± 0.33 | 2.57 ± 0.33
30 | SKHLKEMYQELMEMCHKPDVELLQ [TRIM43] | 2.71 ± 0.26 | 2.7 ± 0.51
31 | KPYACDECAKAFSRSAILIQHRRT [ZNF396] | 2.12 ± 0.11 | 2.37 ± 0.19
32 | QTESALSKKLRAILPKQSRKSMLD [LCOR] | 3.05 ± 0.098 | 3.14 ± 0.2
33 | VVKLLVSHGANVNHTTVTNSTPLR [FEM1B] | 2.25 ± 0.26 | 2.29 ± 0.27
34 | IIELRRTVNALEIELQAQHSMRNS [KRT36] | 2.38 ± 0.26 | 2.32 ± 0.33
35 | PGASTEEVKRAFFSKSKELHPDRD [DNAJC4] | 5.12 ± 0.28 | 5.18 ± 0.079
36 | PQPHRNRAGLDLPTIDTGYDSQPQ [TRAF3IP2] | 4.58 ± 0.2 | 4.76 ± 0.19
37 | YGYNNVVTIPAGATHILVRQQGNP [ADAMTS4] | 2.53 ± 0.13 | 2.72 ± 0.34
38 | HAASDPSSSSGRLSEPDPSHTLEE [SMOC2] | 5.31 ± 0.29 | 5.43 ± 0.15
39 | DLLSCSNFAVQHRYLFEEDNLLRS [MATN2] | 2.42 ± 0.18 | 2.43 ± 0.47
40 | VAAACACGFTVAQIITSLVFHLPF [OR10K2] | 3.43 ± 0.54 | 3.42 ± 0.68
41 | ACFLVRGLLLRGAVDGILHMFTPK [SLC6A17] | 2.39 ± 0.73 | 2.83 ± 1.2
42 | PMVNHAEASRLNIERMKQIYQQLS [CRY1] | 2.81 ± 0.34 | 2.77 ± 0.25
43 | DTRSGFWYVCRTQGVEGDHCVTSD [TRIM35] | 2.89 ± 0.31 | 3.08 ± 0.34
44 | IYRDSYPRNPTVRWGYVAMKFAQV [SOAT1] | 2.79 ± 0.47 | 2.67 ± 0.53
45 | SWLESCIVGWRCRVGQWVRMENVT [GMPPB] | 2.79 ± 0.63 | 2.69 ± 0.76
46 | MGGAVSAGEDNDDLIDNLKEAQYI [PCMTD1] | 4.82 ± 0.086 | 4.64 ± 0.17

Row | Sequence | protein stability index (treatment: DMSO) | protein stability index (treatment: MLN4924 1 uM, 8 h)
47 | SCDLPEERYRHEIAHDGQRIYVLG [KLHDC10] | 3.81 ± 0.17 | 3.75 ± 0.25
48 | QLFFFHLFVGVDCFLLTAMAYDQF [OR3A1] | 3.13 ± 0.23 | 3.41 ± 0.16
49 | KKKPGTAMCVGCGSQIHDQFILRV [ISL2] | 2.36 ± 0.37 | 2.23 ± 0.29
50 | LSDFEECEETGELFEEPAPQALAT [FCHSD1] | 5.21 ± 0.22 | 5.2 ± 0.23
51 | EMQLSEVQIKTWFQNRRMKHKRQM [VENTX] | 3.26 ± 0.16 | 3.19 ± 0.37
52 | NTCSVITTLKGHEGSVACLWWDPI [WDFY1] | 2.09 ± 0.39 | 2.34 ± 0.46
53 | ANLAASGGYAIAVVLLQGAELLLA [TSPAN10] | 2.97 ± 0.54 | 3.05 ± 0.92
54 | RVFQNRFSTQYRCFSVSMLAGPND [UFD1] | 2.38 ± 0.34 | 2.3 ± 0.26
55 | HDYHGILVDEEEKVLIQKNLGPKS [ADD1] | 4.79 ± 0.33 | 4.9 ± 0.075
56 | GSIPGFLISSGMSSHKQGHTSSEY [TAF7L] | 3.25 ± 0.23 | 3.29 ± 0.29
57 | YLSLLRMYLSPPSIHCLGPIKLEL [VPS39] | 3.26 ± 0.43 | 2.94 ± 0.16
58 | ISHEEQKSVRLARELESREAELRR [CHCHD6] | 5 ± 0.3 | 5.14 ± 0.37
59 | EEYTTGMADCILVNSQFTAAVFKE [ALG2] | 3.21 ± 0.27 | 3.26 ± 0.24
60 | CQVEVRLLLAYNSSARIPKCPWME [INTS4] | 3.21 ± 0.91 | 3.1 ± 0.25
61 | LLSRLEEEEQDILQRLRENAAHLG [TRIM39] | 3.63 ± 0.16 | 3.71 ± 0.33
62 | SNSLSSAEPLKEDKPVTGPRNKTE [ATF6] | 5.67 ± 0.1 | 5.59 ± 0.3
63 | VKNVVSGGFPIIRDQIFRYVHDPE [FBXO3] | 2.53 ± 0.31 | 2.63 ± 0.38
64 | MFTSELSEKGKPYVDIQGLTASTM [KLHL12] | 2.54 ± 0.31 | 2.88 ± 0.46
65 | DREVDAATSATSHTRSLNSIIHQM [FBF1] | 4.09 ± 0.15 | 4.21 ± 0.28
66 | GSKFRYSGRTQAQTRRASALIDRP [EPB41L3] | 3.35 ± 0.41 | 3.44 ± 0.27
67 | GAQVNMPADSFESPLTLAACGGHV [ANKRD17] | 4.23 ± 0.23 | 4.24 ± 0.12
68 | SVPASDPRSCSSGPAGPYLLSKKG [PLEKHN1] | 4.65 ± 0.15 | 4.69 ± 0.089
69 | TLKFYCLPDNYEIIDSSLEDITYV [USP39] | 2.18 ± 0.047 | 2.29 ± 0.19

Row | Sequence | protein stability index (treatment: DMSO) | protein stability index (treatment: MLN4924 1 uM, 8 h)
70 | ETQLKTLAQFPNTLLGNPKKRMRY [KCNA1] | 3.25 ± 0.46 | 3.61 ± 0.46
71 | RVLLTGLHAVADIHCENCKTTLGW [YPEL3] | 2.42 ± 0.69 | 2.27 ± 0.29
72 | EFNHTGELLATGDKGGRVVIFQRE [PPP2R2B] | 3.18 ± 0.24 | 3.19 ± 0.22
73 | RSGGPPPKKSAPSAVARSNSWMGS [RBMY1A1] | 3.7 ± 0.27 | 3.64 ± 0.22
74 | LDGALRTFLKAFPLMGETQERERV [PSD2] | 2.96 ± 0.098 | 2.88 ± 0.25
75 | ASVVLPARELQEALPEAPAPLLPH [BCL2L13] | 4.34 ± 0.17 | 4.35 ± 0.22
76 | PRIIKAAPSCAIMISTYEFGKSFF [SLC25A39] | 2.56 ± 0.49 | 2.28 ± 0.32
77 | EGGWWKAISLSTGRESYIPGICVA [SLA] | 2.03 ± 0.91 | 2.05 ± 0.52
78 | SRLLFFLLGFLRIRVRGQRASRLQ [LPCAT4] | 2.35 ± 0.09 | 2.58 ± 0.31
79 | NTNVLSRDLIPPHVNFSHLTTKDY [SLC6A17] | 3.49 ± 0.37 | 3.87 ± 0.12
80 | MQPPPPGPLGDCLRDWEDLQQDFQ [TMEM120A] | 4.86 ± 0.2 | 4.66 ± 0.2
81 | LFGFYFCMPLVCTAIFYTLMTCEM [EDNRA] | 3.11 ± 0.33 | 3.14 ± 0.42
82 | EDIVFETDHILESLYRDIRDIQDE [STX11] | 4.08 ± 0.12 | 4.31 ± 0.14
83 | HTPLISKSQSLRSVRRSESWARPR [RASAL3] | 3.45 ± 0.29 | 3.66 ± 0.22
84 | APGFGEDVPNRLVDNIDMIDGDGD [BEX5] | 5.5 ± 0.23 | 5.59 ± 0.19
85 | LKYLHEQEILHRDLKLGNFFINEA [PLK2] | 1.85 ± 0.18 | 1.97 ± 0.3
86 | TETREEDVTDEHGEREPFAETDEH [FAM9B] | 5.69 ± 0.061 | 5.63 ± 0.26
87 | ELSRQVRSSVELELERCRQQAGLL [PPEF2] | 3.23 ± 0.25 | 3.2 ± 0.39
88 | FMYFLRGSLPWQGLKADTLKERYQ [CSNK1G1] | 2.43 ± 0.35 | 2.26 ± 0.17
89 | SLKAPGARGPGPEGGGGGSYFSGQ [JUNB] | 4.41 ± 0.45 | 4.67 ± 0.24

Reference: the supplement of paper PMC10567573
